Where two headings read alike, the source gives them in different places.
T1: sIHF (Streptomyces coelicolor, UniProt Q9KXR9 1-107)
T1 sequence: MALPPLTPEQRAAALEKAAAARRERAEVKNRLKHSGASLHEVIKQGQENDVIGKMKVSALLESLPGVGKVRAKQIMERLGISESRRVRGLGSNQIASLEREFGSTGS

B1: 19-bp duplex (20bp OH1/OH2) (dsDNA)
DNA 1: GAGGGAGTGCGTGGGTCTGA
DNA 2: CTCAGACCCACGCACTCCCT
B2: 60-bp dsDNA (dsDNA)
DNA 1: CGTACGCGTCGCCACGGCGGCGGCATCGTCCACGAGAACACCCGCCACACCACCCGCTTC
DNA 2: GAAGCGGGTGGTGTGGCGGGTGTTCTCGTGGACGATGCCGCCGCCGTGGCGACGCGTACG
B3: 43-bp dsDNA (dsDNA)
DNA 1: ACCAGGTGGTTGCCGATCACCACGAAGCGGGTGGTGTGGCGGG
DNA 2: CCCGCCACACCACCCGCTTCGTGGTGATCGGCAACCACCTGGT

Tests used:
sIHF [1] = target: T1, sIHF; experiment: EMSA
sIHF [2] = target: T1, sIHF; experiment: EMSA; remark: listed apart in the source

Row | Binder | binding result (sIHF [1]) | binding result (sIHF [2])
1 | B1 | binds | –
2 | B2 | – | binds
3 | B3 | – | binds

Reference: paper PMC3627587
